Changes are numbered by the printed parent chain. Read-outs that look alike come from different tables or passages of the source.

The values below come from patent publication US20250042997A1 (PHYLAXIS BIOSCIENCE, published 2025).

Experiment [1] addresses T1, human Siglec-8 (full-length, on transfected CHO or 293 cells, or native on human eosinophils) (human, UniProt Q9NYZ4 17-499). Briefly: flow cytometry, CHO cells transiently transfected with full-length human Siglec-8 (apparent affinity). The method, then:
(§1) Binding of the anti-human Siglec-8 VHHs, B12, D1, E2, and G2, as a bivalent VHH-hIgG1-xELL-Fc (VHH of SEQ ID NO: 49, 55, 61, and 1, respectively linked to an Fe xELL via linker 2, these constructs are also designated cx8982, cx8983, cx8984, and cx10382, respectively) was determined by flow cytometry using CHO cells that had been transiently transfected with full-length human Siglec-8. Binding specificity was assessed using untransfected (UT) CHO cells as a control. For the binding assays, 50,000 Siglec-8 CHOs or UT CHOs were seeded in a 96-well plate and a titration of anti-Siglec8-VHH-xELL was added in FACS Buffer (PBS 1% BSA, 0.1% NaN3 pH 7.4) incubating for 30 minutes at 4° C. After washing, the plates were incubated with an A647-conjugated anti-human Fcγ specific secondary antibody (Jackson ImmunoResearch) diluted 1:2000 in FACS buffer for 30 minutes at 4° C. The plates were washed, and binding was determined by flow cytometry quantitating anti-human A647 mean fluorescent intensity using an Intellicyt iQue Plus.
(§2) The binding was specific to Siglec-8 as there was no detectable binding to untransfected CHO cells for any of the tested constructs.

The target of experiment [2] is T1, human Siglec-8 (full-length, on …). In words: flow cytometry on human eosinophils (CD16- CCR3+) from whole blood; anti-human AF647 secondary; MFI. From the text:
To determine if increasing the valency of Siglec-8 antibodies could enhance agonist activity, the parental llama B12, D1 and E2 VHH sequences were used to generate tetravalent (Tet-B12 (cx8467; SEQ ID NO:50 linked to an Fe), Tet-D1 (cx8469; SEQ ID NO:56 linked to an Fe), and Tet-E2 (cx8463; SEQ ID NO:62 linked to an Fc)) and hexavalent (Hex-B12 (cx8466; SEQ ID NO:51 linked to an Fe), Hex-D1 (cx8523; SEQ ID NO:57 linked to an Fe), and Hex-E2 (cx8522; SEQ ID NO:165 linked to an Fc)), Siglec8-VHH-Fc antibodies linked to a reduced effector function xELL human Fc region via linker 2. The bivalent (Bi-B12 (cx8982), Bi-D1 (cx8983) and Bi-E2 (cx8984)), tetravalent, and hexavalent Siglec8-VHH-Fc antibodies were assessed by flow cytometry for binding to eosinophils (CD16⁻ CCR3⁺). Cells were isolated from whole blood by centrifugation, washed twice with 2% FBS PBS, and resuspended in 1×RBC lysis buffer for 10 minutes at room temperature (RT), washed once in 2% FBS PBS and treated with a second RBC lysis step and washed twice with 2% FBS. Cells were seeded at 200 k/well and resuspended in Human FC block for 10 minutes at RT. Cells were spun down and then resuspended in titrated test articles starting at 200 nM 1:4 and incubated for 30 minutes at 4° C. before being washed twice and resuspended in secondary mixture (2*; anti-CCR3 FITC, anti-human AF647, PI, anti-CD16 BV605) and incubated for 30 minutes at 4° C., washed twice, and bound antibodies were detected via flow cytometry (Novocyte).
As shown in FIG. 2A-2C, bivalent, tetravalent, and hexavalent Siglec8-VHH-Fc antibodies B12 (FIG. 2A), D1 (FIG. 2B) and E2 (FIG. 2C) bound to eosinophils. The calculated affinity was similar between the bivalent, tetravalent, and hexavalent hzSiglec8-VHH-Fc antibodies. The observed Bmax was reduced with increasing valency as anticipated, due the fact that the Fc portion of the antibody was detected in this assay and the ratio of Fc regions to anti-Siglec-8 binding domains is inverse to valency. No binding was observed on other granulocyte populations (CD16⁺ CCR3⁻).
(In general: A flow cytometer gives signals particle by particle.)

The target is the same in experiment [3]. In words: flow cytometry on CHO cells transiently transfected with full-length human Siglec-8; A647 anti-human Fc-gamma secondary; Mean RL1-H. The method, then:
as §1, §2

For experiment [4] the target is unchanged. Briefly: flow cytometry on CHO cells transfected with human Siglec-8; labelled anti-human Fc-gamma secondary; Median RL1-H. The method, then: In additional studies, the parental llama G2 sequence was humanized and multivalent hzSiglec8-G2v14-Fc antibodies were cloned with a reduced effector function xELL human Fe. Binding of bivalent (ex11422; SEQ ID NO: 5 linked to an Fe xELL via linker 2), tetravalent (cx11580; SEQ ID NO: 9 linked to an Fe xELL via linker 2), and hexavalent (cx11579; SEQ ID NO: 10 linked to an Fe xELL via linker 2) hzSiglec8-G2v14-Fc antibodies were assessed by flow cytometry using CHO cells transfected with human Siglec-8. A titration series of the fusion proteins were incubated with the Siglec8-expressing CHO cells (5×10⁴ cells/well) for 30 minutes at 4° C. in FACS Buffer (PBS 1% BSA, 0.1% NaN3 pH 7.4) in 96 well plates. Following one 150 μL wash with FACS buffer, an APC-conjugated anti-human Fcγ specific secondary antibody (Jackson ImmunoResearch) was added, and cells were incubated for 30 minutes at 4° C. Following one additional wash in FACS buffer, bound antibodies were detected via flow cytometry (iQue Intellicyte).
The calculated affinity was similar between the bivalent, tetravalent, and hexavalent hzSiglec8-G2v14-Fc antibodies. The observed Bmax was reduced with increasing valency as anticipated, due the fact that the Fc portion of the antibody was detected in this assay and the ratio of Fc regions to anti-Siglec-8 binding domains is inverse to valency.

Experiment [5] has the same target. In words: flow cytometry on 293 cells transiently transfected with full-length human Siglec-8; A647 anti-human Fc-gamma secondary; median fluorescence, nonlinear fit; table under the graph. The method, then: (§3) The binding of the lmG2 and humanized versions (further including Siglec8 hzG2v14), formatted as monomeric VHH-hIgG1 fusions proteins using a non-dimerizing human IgG1 Fe variant region lacking a hinge Fe NNT, was assessed by flow cytometry using 293 cells that had been transiently transfected with full-length human Siglec-8 and detected with an anti-human AF647 secondary antibody. Binding specificity was assessed using untransfected 293 cells as a control. For the binding assays, Siglec-8 293 cells or untransformed 293 cells were seeded in a 96 well U-bottom plate with 50 k cells/well in FACS buffer and incubated at 4° C. with a titration of anti-Siglec8-VHH-NNT for 30 minutes. After washing, the plates were incubated with an A647-conjugated anti-human Fcγ specific secondary antibody diluted 1:10,000 in FACS buffer for 20 minutes at 4° C. The plates were washed, and binding was determined by flow cytometry quantitating anti-human A647 median fluorescent intensity. The maximum specific binding (Bmax) and affinity (Kd) for was determined from the flow cytometry binding data using a nonlinear fit model.

Experiment [6] has the same target. The experiment is described as above. Here is the method:
as §3
The source holds these as a separate data set.

Experiment [7] has the same target. Described as above. The method, then:
as §3
This is another data set of the same source.

The target is the same in experiment [8]. In words: flow cytometry on 293 cells transiently transfected with full-length human Siglec-8; A647 anti-human Fc-gamma secondary; median fluorescence, nonlinear fit; table under the graph (Kd column without unit, concentration axis nM Ab). Here is the method:
as §3

The target is the same in experiment [9]. Described as above. The method, then: as §3
The source holds these as a separate data set.

The target is the same in experiment [10]. The description is as above. The method, then:
as §3
The source holds these as a separate data set.

T1 sequence (Q9NYZ4 17-499): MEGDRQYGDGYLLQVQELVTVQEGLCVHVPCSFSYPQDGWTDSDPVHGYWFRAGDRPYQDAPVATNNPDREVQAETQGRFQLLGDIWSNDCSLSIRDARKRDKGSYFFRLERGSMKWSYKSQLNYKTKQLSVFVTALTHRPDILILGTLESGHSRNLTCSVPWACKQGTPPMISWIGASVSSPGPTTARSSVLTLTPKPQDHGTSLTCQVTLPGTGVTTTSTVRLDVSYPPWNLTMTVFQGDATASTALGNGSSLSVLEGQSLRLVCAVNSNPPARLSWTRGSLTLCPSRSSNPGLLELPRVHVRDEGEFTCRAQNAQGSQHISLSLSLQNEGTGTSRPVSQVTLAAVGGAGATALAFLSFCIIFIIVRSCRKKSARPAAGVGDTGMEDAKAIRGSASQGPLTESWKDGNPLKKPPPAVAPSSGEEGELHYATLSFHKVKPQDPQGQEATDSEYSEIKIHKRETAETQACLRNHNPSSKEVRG

B1: anti-Siglec8-E2-xELL, bivalent VHH-hIgG1-xELL-Fc (Fc fusion)
chain: QVQLVESGGGLVQPGGSLRLSCATSGIIFTSNVINWYRQAPGKQREFVAFITSITSGQSTMYADAVKGRFTVSRDNDKNIGYLQMTSLQPEDTARYVCNVGAYWGQGTQVTVKPGGGGDKTHTCPPCPAPGGPSVFLFPPKPKDTLMISRTPEVTCVVVDVSHEDPEVKFNWYVDGVEVHNAKTKPREEQYNSTYRVVSVLTVLHQDWLNGKEYKCKVSNKALPAPIEKTISKAKGQPREPQVYTLPPSRDELTKNQVSLTCLVKGFYPSDIAVEWESNGQPENNYKTTPPVLDSDGSFFLYSKLTVDKSRWQQGNVFSCSVMHEALHNHYTQKSLSLSPGK
notes: Homodimer through the Fc; also called cx8984; Bi-E2
As to B1, the Kd in [1] came out at 0.331 nM. The EC50 (read off the curve) (usually the concentration at which the effect is half-maximal) was ~0.1 nM in [2] and ~0.4 nM in [3].

B2: anti-Siglec8-D1-xELL, bivalent VHH-hIgG1-xELL-Fc (Fc fusion)
chain: QVQLVESGGGLVQPGGSLRLSCAASGSIASIHGMGWYRQAPGKERELVAAIAGEGSTYYADSVKGRFTISRDFAKNTLYLQMNNLKAEDTAMYYCANNDERDDYWGQGTQVTVKPGGGGDKTHTCPPCPAPGGPSVFLFPPKPKDTLMISRTPEVTCVVVDVSHEDPEVKFNWYVDGVEVHNAKTKPREEQYNSTYRVVSVLTVLHQDWLNGKEYKCKVSNKALPAPIEKTISKAKGQPREPQVYTLPPSRDELTKNQVSLTCLVKGFYPSDIAVEWESNGQPENNYKTTPPVLDSDGSFFLYSKLTVDKSRWQQGNVFSCSVMHEALHNHYTQKSLSLSPGK
notes: Homodimer through the Fc; also called cx8983; Bi-D1
As for B2, the Kd in [1] was 0.427 nM. Also, the “EC50 (read off the curve)” value in experiment [2] is ~0.06 nM; in experiment [3], ~0.5 nM.

B3: hexavalent hzSiglec8-G2v14-Fc (xELL) (Fc fusion)
chain: EVQLLESGGGEVQPGGSLRLSCAASGSISIFSMYVVAWYRQAPGKEREWVAFIQRGGTANYAESAKGRFTISRDNAKNTVYLQMSSLRAEDTAVYYCNYINTDNEIGGPWGQGTLVTVKPGGSGGSEVQLLESGGGEVQPGGSLRLSCAASGSISIFSMYVVAWYRQAPGKEREWVAFIQRGGTANYAESAKGRFTISRDNAKNTVYLQMSSLRAEDTAVYYCNYINTDNEIGGPWGQGTLVTVKPGGSGGSEVQLLESGGGEVQPGGSLRLSCAASGSISIFSMYVVAWYRQAPGKEREWVAFIQRGGTANYAESAKGRFTISRDNAKNTVYLQMSSLRAEDTAVYYCNYINTDNEIGGPWGQGTLVTVKPGGGGDKTHTCPPCPAPGGPSVFLFPPKPKDTLMISRTPEVTCVVVDVSHEDPEVKFNWYVDGVEVHNAKTKPREEQYNSTYRVVSVLTVLHQDWLNGKEYKCKVSNKALPAPIEKTISKAKGQPREPQVYTLPPSRDELTKNQVSLTCLVKGFYPSDIAVEWESNGQPENNYKTTPPVLDSDGSFFLYSKLTVDKSRWQQGNVFSCSVMHEALHNHYTQKSLSLSPGK
notes: Homodimer through the Fc; also called cx11579
For B3, the “EC50 (read off the curve)” value in [4] is ~0.02 nM.

B4: llama anti-Siglec8-G2 VHH (lmG2), monomeric VHH-hIgG1 fusion (Fc NNT) (Fc fusion)
chain: QVTLKESGGGLVRTGGSLRLSCAASGSISIFSMYVVAWYRQAPGKQREWVAFIQRGGTANYADSAKGRFTISRDNAKNTVYLQMASLKPDDTAVYYCNYINSDNEIGGPWGQGTQVTVKP
notes: Monomeric format; also called parental clone; not shown: non-dimerizing human IgG1 Fc variant lacking a hinge (Fc NNT)
As for B4, the values for the Bmax in experiment [5], in experiment [6] and in [7] were 1.28e+06 Median (anti-human A647), 1.36e+06 Median (anti-human A647) and 1.15e+06 Median (anti-human A647), respectively. Besides, the Kd was determined as 0.124 nM in experiment [8], 0.114 nM in experiment [9] and 0.0637 nM in [10].

B5: Siglec8 hzG2v32, monomeric VHH-hIgG1 fusion (Fc NNT) (Fc fusion)
chain: B4 chain with Q1E, T3Q, K5L, L11E, R13Q, D63E, A85S, K88R, D90E, Q115L
notes: Monomeric format; not shown: non-dimerizing human IgG1 Fc variant lacking a hinge (Fc NNT)
Consider B5, for which the Bmax in experiment [7] was 1.45e+06 Median (anti-human A647). The Kd in [10] came to 0.0643 nM.

B6: Siglec8 hzG2v33, monomeric VHH-hIgG1 fusion (Fc NNT) (Fc fusion)
chain: B4 chain with Q1E, T3Q, K5L, L11E, R13Q, D63E, A85S, K88R, P89A, Q115L
notes: as for B5
B6: the Bmax in experiment [7] is 1.39e+06 Median (anti-human A647). The same molecule had a Kd in experiment [10] of 0.0979 nM.
